Measured values reported in publication PMC11551757, “Phylogenomic instructed target analysis reveals ELAV complex binding to multiple optimally spaced U-rich motifs”.

T1: ELAV (rELAV) (Drosophila melanogaster?) (UniProt P16914)
T1 sequence: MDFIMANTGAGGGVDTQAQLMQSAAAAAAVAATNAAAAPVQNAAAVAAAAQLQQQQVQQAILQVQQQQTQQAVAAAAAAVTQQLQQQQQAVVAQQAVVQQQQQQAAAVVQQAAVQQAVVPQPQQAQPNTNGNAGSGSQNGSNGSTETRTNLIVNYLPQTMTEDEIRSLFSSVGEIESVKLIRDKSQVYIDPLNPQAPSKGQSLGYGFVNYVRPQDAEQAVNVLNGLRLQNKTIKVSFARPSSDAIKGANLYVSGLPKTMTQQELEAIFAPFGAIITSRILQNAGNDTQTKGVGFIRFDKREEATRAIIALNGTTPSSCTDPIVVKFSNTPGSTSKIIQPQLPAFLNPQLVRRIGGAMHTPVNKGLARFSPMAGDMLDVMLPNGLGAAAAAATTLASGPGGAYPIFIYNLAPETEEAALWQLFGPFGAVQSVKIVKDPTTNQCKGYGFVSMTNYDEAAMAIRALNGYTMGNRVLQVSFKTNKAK

T2: ELAV (rELAV) (UniProt P16914 1-483)
T2 sequence: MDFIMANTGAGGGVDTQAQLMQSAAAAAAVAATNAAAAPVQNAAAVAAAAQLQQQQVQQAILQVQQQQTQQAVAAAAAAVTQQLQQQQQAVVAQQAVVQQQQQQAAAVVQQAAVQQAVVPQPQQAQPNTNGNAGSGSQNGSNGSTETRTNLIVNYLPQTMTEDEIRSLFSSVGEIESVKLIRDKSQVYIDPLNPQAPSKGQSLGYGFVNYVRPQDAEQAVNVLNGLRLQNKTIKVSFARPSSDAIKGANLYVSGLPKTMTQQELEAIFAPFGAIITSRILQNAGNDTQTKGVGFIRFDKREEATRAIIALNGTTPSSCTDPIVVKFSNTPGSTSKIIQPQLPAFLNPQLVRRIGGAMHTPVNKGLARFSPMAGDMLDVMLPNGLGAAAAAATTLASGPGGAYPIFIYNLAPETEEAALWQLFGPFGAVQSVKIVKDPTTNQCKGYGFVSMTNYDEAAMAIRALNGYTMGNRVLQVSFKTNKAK


Legend:
ELAV (rELAV) [1] = target: T1, ELAV (rELAV); assay: EMSA; details: EMSA: 50 mM Tris-HCl pH 7.5, 60 mM NaCl, 25 ug/ml tRNA, 0.5 mM DTT, 50 ug/ml acetylated BSA, 20 min; 4-6% native gel in 0.5x TBE at 4 C. Footprinting: …
ELAV (rELAV) [2] = target: T2, ELAV (rELAV); assay: EMSA; EMSA: 50 mM Tris-HCl pH 7.5, 60 mM NaCl, 25 ug/ml tRNA, 0.5 mM DTT, 50 ug/ml acetylated BSA, 20 min; 4-6% native gel in 0.5x TBE at 4 C. Footprinting: complexes formed as for EMSA, 15 min at room temperature; details: protein: recombinant; tags: GST tag, cleaved off with PreScission protease

Row | Molecule | Kd (ELAV (rELAV) [1]) [nM] | binding signal (ELAV (rELAV) [2])
1 | 5PtaseI RNA | 24 | 
2 | CG4662 RNA | 80 | 
3 | Ect4 RNA | 100 | 
4 | Teh2 RNA | 430 | 
5 | GAAGCUAUUAUACAUUUUAUCUUAUAACUCUAUACUUUAUGUU (ssRNA) [M7H A(CU)2 in m3r] |  | 2.5 fold lower affinity than M7H
